Source: patent publication US20230406884A1 (ZEALAND PHARMA A S, published 2023)
Each block holds one binder with its values, some of them ahead of it. *1 amine or outer side, *2 acyl side, *3 side chain or, on linkers, in order; H or OH if unused. Bridges are numbered along the chain shown (N, C = ends). Where no end group is shown, it is not given here. [ ]: non-standard residue; d: D form. formula (I) linker = non-peptide linker -N(R1)-C(R2)(R3)-C(R4)(R5)- (R1 H, R2 H, R3 CH3, R4 H, R5 C(O)NH-tBu), its N is acylated by the C-terminal carbonyl and its C(R4)(R5) carbon is bonded to the N-terminal N; X3 = 3‑aminomethyl‑4‑(4-(1-piperazinyl)phenyl)benzoic acid, O=C(c1ccc(-c2ccc(N3CCN([*:3])CC3)cc2)c(CN[*:1])c1)[*:2]; Thr(OMe) = O-methyl-threonine, CO[C@H](C)[C@H](N[*:1])C(=O)[*:2]; dPhe(4-CH2NH2) = NCc1ccc(C[C@@H](N)C(=O)O)cc1; Phe(4-CH2NH2) = NCc1ccc(C[C@H](N)C(=O)O)cc1; Hyp = O=C(O)[C@@H]1C[C@@H](O)CN1; d(β3hK) = NCCCC[C@@H](N)CC(=O)O; β3hK = NCCCC[C@H](N)CC(=O)O; dNle = CCCC[C@@H](N)C(=O)O

Legend:
[1] = molecular target: T1, recombinant integrin α4β7 (R&D Systems, 5397-A3-050) (UniProt P13612 34-970; P26010 20-723); assay: α4β7-MAdCAM-1 competition ELISA
T1 construct: coated on the ELISA plate at 1 µg/ml; also called a4b7; α4β7 integrin
Protocol: (§1) The plate was incubated at 4° C. overnight. […] The plate was then incubated for 1 hour at room temperature. The plate was washed three times with wash buffer (50 mM Tris, 100 mM NaCl, 1 mM MnCl₂, 0.05% Tween). To each well, 50 μl of compound diluted in assay buffer was added by transfer from a compound serial dilution plate. […] The plate was incubated at room temperature with shaking (300 rpm) for 2 hours to reach binding equilibrium. Then the plate was washed three times in wash buffer and 100 μl anti-human IgG Fc specific-HRP (Abcam, Ab97225) diluted at 1:2000 in assay buffer was added to each well. The plate was incubated at room temperature for 1 hour under agitation.
T1 sequence (P13612 34-970, chain 1 of 2): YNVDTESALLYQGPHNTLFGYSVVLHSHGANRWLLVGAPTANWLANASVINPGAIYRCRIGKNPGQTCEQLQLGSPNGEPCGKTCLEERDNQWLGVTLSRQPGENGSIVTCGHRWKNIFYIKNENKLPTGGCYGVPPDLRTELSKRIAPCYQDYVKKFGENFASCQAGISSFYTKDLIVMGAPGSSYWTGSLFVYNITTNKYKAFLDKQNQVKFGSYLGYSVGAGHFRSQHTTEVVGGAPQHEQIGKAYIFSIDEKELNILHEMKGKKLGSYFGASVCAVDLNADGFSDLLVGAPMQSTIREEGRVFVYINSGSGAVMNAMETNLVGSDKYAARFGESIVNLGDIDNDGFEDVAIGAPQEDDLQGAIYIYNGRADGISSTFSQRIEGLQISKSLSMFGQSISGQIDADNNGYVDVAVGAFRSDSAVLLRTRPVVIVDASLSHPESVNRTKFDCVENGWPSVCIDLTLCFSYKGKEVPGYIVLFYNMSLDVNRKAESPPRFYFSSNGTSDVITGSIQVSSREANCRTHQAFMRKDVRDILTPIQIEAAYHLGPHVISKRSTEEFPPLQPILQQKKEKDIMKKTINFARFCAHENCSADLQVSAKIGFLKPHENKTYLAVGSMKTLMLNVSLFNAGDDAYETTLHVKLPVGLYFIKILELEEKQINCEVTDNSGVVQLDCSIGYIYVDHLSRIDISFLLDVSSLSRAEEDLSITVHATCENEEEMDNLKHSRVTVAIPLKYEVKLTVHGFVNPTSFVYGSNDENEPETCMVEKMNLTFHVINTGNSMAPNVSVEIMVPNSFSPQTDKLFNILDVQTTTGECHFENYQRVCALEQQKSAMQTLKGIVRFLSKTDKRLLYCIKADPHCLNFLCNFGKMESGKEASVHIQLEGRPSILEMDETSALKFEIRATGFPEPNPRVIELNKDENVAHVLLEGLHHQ
T1 sequence (P26010 20-723, chain 2 of 2): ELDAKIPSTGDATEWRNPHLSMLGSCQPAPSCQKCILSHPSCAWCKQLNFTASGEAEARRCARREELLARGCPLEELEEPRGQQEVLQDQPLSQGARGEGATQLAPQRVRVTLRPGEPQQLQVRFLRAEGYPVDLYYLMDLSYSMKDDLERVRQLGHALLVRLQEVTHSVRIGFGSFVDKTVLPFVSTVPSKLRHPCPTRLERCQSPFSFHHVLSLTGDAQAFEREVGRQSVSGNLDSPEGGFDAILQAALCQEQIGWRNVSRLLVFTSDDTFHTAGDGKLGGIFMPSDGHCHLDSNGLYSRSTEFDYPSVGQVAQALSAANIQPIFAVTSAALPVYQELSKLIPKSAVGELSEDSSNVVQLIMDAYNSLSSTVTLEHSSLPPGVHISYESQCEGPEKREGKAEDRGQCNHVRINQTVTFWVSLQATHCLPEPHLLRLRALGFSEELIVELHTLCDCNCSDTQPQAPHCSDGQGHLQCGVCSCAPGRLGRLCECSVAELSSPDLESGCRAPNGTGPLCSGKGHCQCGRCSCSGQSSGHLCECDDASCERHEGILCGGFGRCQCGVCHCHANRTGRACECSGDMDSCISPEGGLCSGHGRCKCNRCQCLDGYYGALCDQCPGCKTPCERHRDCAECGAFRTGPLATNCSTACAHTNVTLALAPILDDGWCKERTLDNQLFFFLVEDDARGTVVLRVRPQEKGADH

[2] = molecular target: T2, recombinant integrin α4β1 (R&D Systems, 5397-A3-050 [sic]) (UniProt P13612 34-970; P05556 21-728); assay: α4β1-VCAM-1 competition ELISA
T2 construct: coated on the ELISA plate at 0.5 µg/ml; the printed catalogue number is the same as for α4β7; also called a4b1; α4β1 integrin
T2 sequence (P13612 34-970, chain 1 of 2): as the sequence (P13612 34-970, chain 1 of 2) above
T2 sequence (P05556 21-728, chain 2 of 2): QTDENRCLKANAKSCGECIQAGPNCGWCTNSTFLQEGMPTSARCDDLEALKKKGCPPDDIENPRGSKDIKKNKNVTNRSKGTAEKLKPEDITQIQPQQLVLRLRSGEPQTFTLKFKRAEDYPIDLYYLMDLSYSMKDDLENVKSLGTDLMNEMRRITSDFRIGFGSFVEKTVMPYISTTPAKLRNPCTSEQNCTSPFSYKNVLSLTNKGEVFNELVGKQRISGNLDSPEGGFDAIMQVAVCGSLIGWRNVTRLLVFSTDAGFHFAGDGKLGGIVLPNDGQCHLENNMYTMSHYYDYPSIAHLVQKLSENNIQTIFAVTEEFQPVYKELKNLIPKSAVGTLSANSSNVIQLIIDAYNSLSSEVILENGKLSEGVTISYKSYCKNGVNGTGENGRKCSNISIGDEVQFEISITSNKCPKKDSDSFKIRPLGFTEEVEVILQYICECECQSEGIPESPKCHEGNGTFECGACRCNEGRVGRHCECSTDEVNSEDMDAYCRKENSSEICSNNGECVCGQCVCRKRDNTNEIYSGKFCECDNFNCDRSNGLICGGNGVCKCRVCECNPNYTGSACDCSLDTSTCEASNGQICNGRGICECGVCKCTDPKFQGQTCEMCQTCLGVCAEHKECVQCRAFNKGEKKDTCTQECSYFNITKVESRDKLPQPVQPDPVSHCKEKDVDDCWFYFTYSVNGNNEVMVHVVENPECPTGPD
Protocol: as §1

[3] = molecular target: T2, recombinant integrin α4β1 (R&D Systems, …); assay: ratio of ELISA IC50s, α4β1 over α4β7
Protocol: as §1
(§2) The plate was incubated at 4° C. overnight. […] The plate was then incubated for 1 hour at room temperature. The plate was washed three times with wash buffer (50 mM Tris, 100 mM NaCl, 1 mM MnCl₂, 0.05% Tween). To each well, 50 μl of compound diluted in assay buffer was added by transfer from a compound serial dilution plate. […] The plate was incubated at room temperature with shaking (300 rpm) for 2 hours to reach binding equilibrium.

[4] = molecular target: T3, recombinant integrin α4β1 (R&D Systems, 5397-A3-050) (UniProt P13612 34-970; P05556 21-728); assay: competition ELISA, VCAM-Fc on coated α4β1
T3 construct: bought; coated on the ELISA plate; also called a4b1; α4β1 integrin
T3 sequence (P13612 34-970, chain 1 of 2): as the sequence (P13612 34-970, chain 1 of 2) above
T3 sequence (P05556 21-728, chain 2 of 2): as the sequence (P05556 21-728, chain 2 of 2) above
Protocol: as §1

[5] = molecular target: T3, recombinant integrin α4β1 (R&D Systems, …); assay: IC50 on α4β1 / IC50 on α4β7
Protocol: as §1, §2

[6] = molecular target: T4, recombinant integrin α4β7 (R&D Systems, 5397-A3-050) (UniProt P13612 34-970; P26010 20-723); assay: competition ELISA, MAdCAM-Fc on coated α4β7
T4 construct: bought; coated on the ELISA plate; also called a4b7; α4β7 integrin
Protocol: as §1
T4 sequence (P13612 34-970, chain 1 of 2): as the sequence (P13612 34-970, chain 1 of 2) above
T4 sequence (P26010 20-723, chain 2 of 2): as the sequence (P26010 20-723, chain 2 of 2) above

[7] = molecular target: T5, integrin α4β7 on human cells (human, UniProt P13612 34-1032; P26010 20-798); assay: cell-based or functional assay
T5 sequence (P13612 34-1032, chain 1 of 2): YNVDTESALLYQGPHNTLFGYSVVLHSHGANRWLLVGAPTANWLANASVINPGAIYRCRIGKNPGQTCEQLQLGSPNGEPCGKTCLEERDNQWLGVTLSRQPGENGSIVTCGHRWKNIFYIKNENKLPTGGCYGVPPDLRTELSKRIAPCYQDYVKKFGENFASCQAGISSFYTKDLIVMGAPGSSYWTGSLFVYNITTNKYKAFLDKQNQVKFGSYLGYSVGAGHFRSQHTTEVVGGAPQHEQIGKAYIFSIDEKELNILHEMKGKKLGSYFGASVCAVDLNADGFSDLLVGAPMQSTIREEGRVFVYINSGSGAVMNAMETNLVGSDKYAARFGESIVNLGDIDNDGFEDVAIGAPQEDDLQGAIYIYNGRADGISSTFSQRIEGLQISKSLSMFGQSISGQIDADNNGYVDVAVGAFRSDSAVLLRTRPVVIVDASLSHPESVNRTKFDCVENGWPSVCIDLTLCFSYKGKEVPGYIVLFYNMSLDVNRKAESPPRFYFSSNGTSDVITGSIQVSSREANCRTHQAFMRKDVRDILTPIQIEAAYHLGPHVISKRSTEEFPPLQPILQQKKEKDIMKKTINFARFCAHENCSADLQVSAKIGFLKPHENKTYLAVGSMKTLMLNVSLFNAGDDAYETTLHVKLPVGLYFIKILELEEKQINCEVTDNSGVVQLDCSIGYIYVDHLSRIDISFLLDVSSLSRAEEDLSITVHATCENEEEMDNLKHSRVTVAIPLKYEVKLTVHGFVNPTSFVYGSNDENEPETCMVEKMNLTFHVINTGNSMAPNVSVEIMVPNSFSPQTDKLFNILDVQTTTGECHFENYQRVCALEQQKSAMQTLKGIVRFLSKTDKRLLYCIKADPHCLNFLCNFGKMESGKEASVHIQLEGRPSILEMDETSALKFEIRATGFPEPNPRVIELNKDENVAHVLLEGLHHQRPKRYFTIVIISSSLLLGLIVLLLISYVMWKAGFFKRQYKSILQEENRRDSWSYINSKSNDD
T5 sequence (P26010 20-798, chain 2 of 2): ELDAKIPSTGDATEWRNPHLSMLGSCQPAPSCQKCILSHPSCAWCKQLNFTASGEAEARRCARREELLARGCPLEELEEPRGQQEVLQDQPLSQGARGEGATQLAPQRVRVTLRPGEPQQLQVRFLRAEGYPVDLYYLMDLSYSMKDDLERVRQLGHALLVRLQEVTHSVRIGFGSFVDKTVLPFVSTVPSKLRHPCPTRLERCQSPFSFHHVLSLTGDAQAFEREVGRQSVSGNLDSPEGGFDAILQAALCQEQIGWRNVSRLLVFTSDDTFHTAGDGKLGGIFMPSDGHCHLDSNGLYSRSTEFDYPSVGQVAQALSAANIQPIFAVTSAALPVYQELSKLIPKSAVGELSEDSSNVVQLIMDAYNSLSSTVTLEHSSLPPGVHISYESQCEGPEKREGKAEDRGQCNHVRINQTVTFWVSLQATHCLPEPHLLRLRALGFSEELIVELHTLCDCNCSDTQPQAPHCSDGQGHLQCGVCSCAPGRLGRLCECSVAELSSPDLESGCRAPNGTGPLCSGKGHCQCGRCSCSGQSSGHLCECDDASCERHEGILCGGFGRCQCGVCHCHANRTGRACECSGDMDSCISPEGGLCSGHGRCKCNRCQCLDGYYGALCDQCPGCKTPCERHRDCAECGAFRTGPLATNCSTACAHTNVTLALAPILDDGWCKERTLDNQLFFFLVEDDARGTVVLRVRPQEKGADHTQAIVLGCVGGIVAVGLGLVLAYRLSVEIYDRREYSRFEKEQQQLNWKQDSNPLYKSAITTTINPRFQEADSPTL

[8] = molecular target: T6, integrin α4β1 on human cells (human, UniProt P13612 34-1032; P05556 21-798); assay: VCAM-1 competition, FACS on α4β7-negative Th memory cells, human whole blood
T6 construct: whole, on cells; also called a4b1

[9] = molecular target: T5, integrin α4β7 on human cells; assay: competition with a saturating amount of MAdCAM, flow cytometry on α4β7+ Th memory cells in human whole blood
[10] = molecular target: integrin α4β7 on RPMI8866 human cells (human, UniProt P13612 34-1032; P26010 20-798); assay: cell-based or functional assay
Chain of integrin α4β7 on RPMI8866 human cells (P13612 34-1032, chain 1 of 2): as the sequence (P13612 34-1032, chain 1 of 2) above
Chain of integrin α4β7 on RPMI8866 human cells (P26010 20-798, chain 2 of 2): as the sequence (P26010 20-798, chain 2 of 2) above

Binder: PYXLDT (X^z dMeArg, macrocycle of formula (I)) [Compound No. 157]
IC50 [1]: 67 nM

B3: Compound No. 155 (peptide)
peptide: PY[dNle]LDT
modifications: bridge N-C; not fully specified (bridges); also: macrocycle closed by non-peptide linker -NH-CH(CH3)-CH(C(O)NH-tBu)- between Pro N and C-terminal C
notes: macrocycle of formula (I)
IC50 [1]: 54 nM

B4: Compound No. 40 (peptide)
peptide: PFLD[Thr(OMe)]
modifications: bridge N-C; not fully specified (bridges); printed as Pro Phe Leu Asp X
notes: macrocycle of formula (I); R1 H, R2 H, R3 CH3, R4 H, R5 C(O)-NH-tert-Butyl
IC50 [4]: 119 nM
ELISA Assay Ratio b1/b7 [5]: 1.9
IC50 [6]: 63 nM

Binder: PYXXDT (X^z dPip; X^1 tertbutylAla, macrocycle of formula (I)) [Compound No. 150]
IC50 [2]: 447 nM
ELISA Assay Ratio b1/b7 [3]: 8.2
IC50 [1]: 54 nM

Binder: [Hyp]FLDT (linker N-C via formula (I) linker) [Compound No. 32]
RPMI8866 Adhesion a4b7/MAdCAM IC50 [10]: 11200 nM

Binder: PXGLDT (X^y (4-aminomethyl-Phe), macrocycle of formula (I)) [Compound No. 165]
IC50 [2]: 2920 nM

Binder: PXVLDT (X^y Tyr(OAllyl); X^z dVal, macrocycle of formula (I)) [Compound No. 166]
IC50 [2]: 1380 nM

Next, values leading:

IC50 [2]: 413 nM
IC50 [1]: 33 nM
Binder: P[Phe(4-CH2NH2)][β3hK]LDI (bridge N-C; not fully specified (bridges); printed as Pro X1 X2 Leu Asp Ile, macrocycle of formula (I)) [Compound No. 215]

IC50 [2]: 1090 nM
IC50 [1]: 69 nM
B1: Compound No. 253 (peptide)
peptide: cyclo(P[dPhe(4-CH2NH2)][β3hK]LDI)
modifications: also: macrocycle closed by non-peptide linker -NH-CH(CH3)-CH(C(O)NH-tBu)- between Pro1 N and C-terminal C
notes: macrocycle of formula (I)

IC50 [2]: 1800 nM
ELISA Assay Ratio b1/b7 [3]: 33
IC50 [1]: 55 nM
B2: Compound No. 254 (peptide)
peptide: cyclo(P[Phe(4-CH2NH2)][β3hK]LDV)
modifications: also: macrocycle closed by non-peptide linker -NH-CH(CH3)-CH(C(O)NH-tBu)- between Pro1 N and C-terminal C
notes: macrocycle of formula (I)

IC50 [2]: 1090 nM
Binder: P[dR][β3hK]LDT (bridge N-C; not fully specified (bridges); printed as Pro X1 X2 Leu Asp Thr, macrocycle of formula (I)) [Compound No. 217]

IC50 [2]: 993 nM
B5: Compound No. 231 (peptide)
peptide: PR[β3hK]LDT
modifications: bridge N-C; not fully specified (bridges); also: macrocycle closed by non-peptide linker -NH-CH(CH3)-CH(C(O)NH-tBu)- between Pro1 N and C-terminal C
notes: macrocycle of formula (I)

IC50 [2]: 1740 nM
ELISA Assay Ratio b1/b7 [3]: 18.2
IC50 [1]: 96 nM
Binder: PF[d(β3hK)]LDI (bridge N-C; not fully specified (bridges); printed as Pro Phe X Leu Asp Ile, macrocycle of formula (I)) [Compound No. 220]

IC50 in the RPM18866 cell adhesion assay [7]: 9.9 nM
IC50 [8]: 600 nM
EC50 [9]: 38 nM
B6: Compound No. 517 (peptide)
peptide: P[X3]LDT
modifications: bridge (positions not given here); not fully specified (residue 2, bridges); also: homodimer: diphenic acid diamide on piperazine N of X2 joins two copies
notes: also called ET3764; ET03764

IC50 [2]: 2000 nM
Binder: PXSLDT (X^y Tyr(OAllyl); X^z dSer, macrocycle of formula (I)) [Compound No. 167]
